Laboratory results published in patent US20240270821A1, “GIP/GLP1/GCG TRI-RECEPTOR AGONISTS AND USES THEREOF” (priority 2023, published 2024).

Experiments:
Assay in all cases: cell-based or functional assay
hGLP-1R = hGLP-1R (Homo sapiens, UniProt P43220)
[1] = target: T1, human GIP receptor (human) (UniProt P48546)
T1 sequence (looked up): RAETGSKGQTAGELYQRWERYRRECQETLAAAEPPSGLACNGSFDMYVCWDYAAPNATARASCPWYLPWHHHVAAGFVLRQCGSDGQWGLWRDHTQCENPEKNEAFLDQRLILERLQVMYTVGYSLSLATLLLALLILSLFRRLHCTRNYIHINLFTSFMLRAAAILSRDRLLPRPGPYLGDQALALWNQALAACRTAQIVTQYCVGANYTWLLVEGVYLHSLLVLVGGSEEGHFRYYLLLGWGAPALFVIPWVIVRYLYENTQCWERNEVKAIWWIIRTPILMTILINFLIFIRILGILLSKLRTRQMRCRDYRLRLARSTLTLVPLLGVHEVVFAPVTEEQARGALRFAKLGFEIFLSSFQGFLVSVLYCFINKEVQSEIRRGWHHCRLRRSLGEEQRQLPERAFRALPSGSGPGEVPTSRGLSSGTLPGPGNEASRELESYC

[2] = target: human glucagon receptor (human) (UniProt P47871)
Chain of human glucagon receptor (human) (P47871 26-477): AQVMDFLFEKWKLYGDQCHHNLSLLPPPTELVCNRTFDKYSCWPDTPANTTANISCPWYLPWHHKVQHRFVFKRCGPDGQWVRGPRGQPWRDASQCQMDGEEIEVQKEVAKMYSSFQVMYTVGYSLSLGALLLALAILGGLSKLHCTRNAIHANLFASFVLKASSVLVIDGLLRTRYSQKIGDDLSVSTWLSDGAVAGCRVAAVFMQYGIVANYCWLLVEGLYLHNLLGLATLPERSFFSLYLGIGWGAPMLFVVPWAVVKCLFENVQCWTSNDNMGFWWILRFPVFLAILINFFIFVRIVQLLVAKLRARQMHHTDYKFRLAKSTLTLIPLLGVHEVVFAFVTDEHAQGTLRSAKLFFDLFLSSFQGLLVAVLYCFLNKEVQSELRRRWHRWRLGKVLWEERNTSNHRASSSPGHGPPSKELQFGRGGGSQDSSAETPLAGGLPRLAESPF

Chain of hGLP-1R (P43220 24-463): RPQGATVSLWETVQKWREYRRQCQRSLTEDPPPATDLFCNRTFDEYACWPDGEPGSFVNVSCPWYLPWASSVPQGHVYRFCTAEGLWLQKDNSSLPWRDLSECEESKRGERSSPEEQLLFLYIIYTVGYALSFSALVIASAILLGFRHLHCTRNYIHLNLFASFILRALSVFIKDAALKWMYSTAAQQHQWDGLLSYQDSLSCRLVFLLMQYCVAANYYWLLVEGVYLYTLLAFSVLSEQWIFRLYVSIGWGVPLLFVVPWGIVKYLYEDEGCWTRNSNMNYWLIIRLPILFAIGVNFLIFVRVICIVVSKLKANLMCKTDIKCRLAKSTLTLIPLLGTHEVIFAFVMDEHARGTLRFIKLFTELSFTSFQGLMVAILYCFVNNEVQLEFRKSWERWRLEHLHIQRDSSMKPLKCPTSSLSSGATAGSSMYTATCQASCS

B1: Example 1112 (peptide)
chain: YXQGTFTSDXSQXLDXKAQXAFIEXLIEXGPSSGAPPPSGSEE
modifications: non-natural residues; acylated Lys; C-terminal amide; synthetic construct; SITE 2: note = 2-Aminoisobutyric Acid; SITE 10: note = 3-(4-Pyridyl)-L-alanine; SITE 13: note = alpha-methyl-leucine; SITE 16: note = L-ornithine; SITE 17: note = Lysine is chemically modified through conjugation of the epsilon-amino group of the Lysine side chain with D-Glutami
B1 showed a Relative cAMP EC50 (hGLP-1R) of 0.957 nM, a Relative cAMP EC50 [1] of 0.254 nM and a Relative cAMP EC50 [2] of 10.7 nM.

B2: Example 1122 (peptide)
chain: YXQGTFTSDXSQXLDKKAQXAFIEXLIEXGPSSGAPPPSGSEE
modifications: Aib, 4Pal, αMeL, Me4Pal; K (γGlu)2-C18 diacid; amide; synthetic construct; SITE 2: note = 2-Aminoisobutyric Acid; SITE 10: note = 3-(4-Pyridyl)-L-alanine; SITE 13: note = alpha-methyl-leucine; SITE 17: note = Lysine is chemically modified through conjugation of the epsilon-amino group of the Lysine side chain with (gamma-Glu)2-CO-(CH2)16-CO2H; SITE 20:
For B2, the Relative cAMP EC50 (hGLP-1R) was 5.66 nM, the Relative cAMP EC50 [1] was 0.109 nM and the Relative cAMP EC50 [2] was 10.3 nM.

B3: Example 1113 (peptide)
chain: YXQGTFTSDXSQXLDXKAQXQFIEXLIEXGPSSGAPPPSGSEE
modifications: non-natural residues; lipidated Lys; C-terminal amide; synthetic construct; SITE 2: note = 2-Aminoisobutyric Acid; SITE 10: note = 3-(4-Pyridyl)-L-alanine; SITE 13: note = alpha-methyl-leucine; SITE 16: note = L-ornithine; SITE 17: note = Lysine is chemically modified through conjugation of the epsilon-amino group of the Lysine side chain with D-Glutami
B3 gave a Relative cAMP EC50 (hGLP-1R) of 1.12 nM, a Relative cAMP EC50 [1] of 0.0414 nM and a Relative cAMP EC50 [2] of 14.4 nM.

B4: Example 1127 (peptide)
chain: YXQGTFTSDXSQXLDKKAQXAFIEYLIEXGPSSGAPPPSGTGE
modifications: Aib, 4Pal, Me4Pal, alpha-methyl-Leu, lipidated Lys, C-terminal amide; synthetic construct; SITE 2: note = 2-Aminoisobutyric Acid; SITE 10: note = 3-(4-Pyridyl)-L-alanine; SITE 13: note = alpha-methyl-leucine; SITE 17: note = Lysine is chemically modified through conjugation of the epsilon-amino group of the Lysine side chain with (gamma-Glu)2-CO-(CH2)16-CO2H; SITE 20:
Binder B4 has a Relative cAMP EC50 (hGLP-1R) of 6.16 nM, a Relative cAMP EC50 [1] of 0.167 nM and a Relative cAMP EC50 [2] of 5.95 nM.

B5: Example 1119 (peptide)
chain: YXQGTFTSDXSQXLDKKAQXAFIEXLIEXGPSSGAPPPSGTGE
modifications: Aib, 4Pal, αMeL, Me4Pal; acylated Lys; C-terminal amide; synthetic construct; SITE 2: note = 2-Aminoisobutyric Acid; SITE 10: note = 3-(4-Pyridyl)-L-alanine; SITE 13: note = alpha-methyl-leucine; SITE 17: note = Lysine is chemically modified through conjugation of the epsilon-amino group of the Lysine side chain with (gamma-Glu)2-CO-(CH2)16-CO2H; SITE 20:
For B5, the Relative cAMP EC50 (hGLP-1R) was 3.57 nM, the Relative cAMP EC50 [1] was 0.0939 nM and the Relative cAMP EC50 [2] was 7.61 nM.

B6: Example 1134 (peptide)
chain: YXQGTFTSDXXQXLDXKAQXQFIQXLIEXGPSSGAPPPSGGGE
modifications: not fully specified; N-methyl-Tyr, non-natural residues, acylated Lys (γGlu-C18 diacid), C-terminal amide; synthetic construct; SITE 1: note = N-methyl-tyrosine; SITE 2: note = 2-Aminoisobutyric Acid; SITE 10: note = 3-(4-Pyridyl)-L-alanine; SITE 11: note = alpha-methyl-L-serine; SITE 13: note = alpha-methyl-leucine; SITE 16: note = L-ornithine; SITE 17: note = Lysine is chemically modified …
B6 showed a Relative cAMP EC50 (hGLP-1R) of 0.957 nM, a Relative cAMP EC50 [1] of 0.0391 nM and a Relative cAMP EC50 [2] of 2.57 nM.

B7: Example 1117 (peptide)
chain: YXQGTFTSDXSQXLDKKAQXAFIEXLIEXGPSSGAPPPSGTGE
modifications: non-natural residues; Lys acylated AEEA-γGlu-C18 diacid; C-terminal amide; synthetic construct; SITE 2: note = 2-Aminoisobutyric Acid; SITE 10: note = 3-(4-Pyridyl)-L-alanine; SITE 13: note = alpha-methyl-leucine; SITE 17: note = Lysine is chemically modified through conjugation of the epsilon-amino group of the Lysine side chain with (2-[2-(2-Amino-ethoxy)-ethoxy]-acetyl)
Binder B7 has a Relative cAMP EC50 (hGLP-1R) of 3.51 nM, a Relative cAMP EC50 [1] of 0.124 nM and a Relative cAMP EC50 [2] of 4.93 nM.

B8: Example 1114 (peptide)
chain: YXQGTFTSDXSQXLDXKAQXAFIEXLIAXGPSSGAPPPSGSEE
modifications: not fully specified; Aib, 4Pal, αMeL, Orn, Me4Pal, αMeY; γGlu-C18 diacid Lys; C-term amide; synthetic construct; SITE 2: note = 2-Aminoisobutyric Acid; SITE 10: note = 3-(4-Pyridyl)-L-alanine; SITE 13: note = alpha-methyl-leucine; SITE 16: note = L-ornithine; SITE 17: note = Lysine is chemically modified through conjugation of the epsilon-amino group of the Lysine side chain with D-Glutami
For B8, the Relative cAMP EC50 (hGLP-1R) was 0.84 nM, the Relative cAMP EC50 [1] was 0.0478 nM and the Relative cAMP EC50 [2] was 11.5 nM.

B9: Example 1120 (peptide)
chain: YXQGTFTSDXSQXLDKKAQXAFIEXLIEXGPSSGAPPPSGE
modifications: Aib, 4Pal, αMeL, Me4Pal; acylated K; C-terminal amide; synthetic construct; SITE 2: note = 2-Aminoisobutyric Acid; SITE 10: note = 3-(4-Pyridyl)-L-alanine; SITE 13: note = alpha-methyl-leucine; SITE 17: note = Lysine is chemically modified through conjugation of the epsilon-amino group of the Lysine side chain with (gamma-Glu)2-CO-(CH2)16-CO2H; SITE 20:
For B9, the Relative cAMP EC50 (hGLP-1R) was 4.5 nM, the Relative cAMP EC50 [1] was 0.096 nM and the Relative cAMP EC50 [2] was 5.17 nM.

B10: Example 266 (peptide)
chain: YXQGTFTSDFSXXLDKKAQXAFIEWLLEXGHSSGAPPPSGE
modifications: Aib, Orn, αMeL; K acylated with (AEEA)2-γGlu-C18 diacid; C-amide; synthetic construct; SITE 2: note = 2-Aminoisobutyric Acid; SITE 12: note = L-ornithine; SITE 13: note = alpha-methyl-leucine; SITE 17: note = Lysine is chemically modified through conjugation of the epsilon-amino group of the Lysine side chain with (2-[2-(2-Amino-ethoxy)-ethoxy]-acetyl)2-(gamma-Glu)
With B10 the cAMP Rel EC50 (in the presence of 1% HSA) (hGLP-1R) was 583 nM, the cAMP Rel EC50 (in the presence of 1% HSA) [1] was 17.3 nM and the cAMP Rel EC50 (in the presence of 1% HSA) [2] was 923 nM.

B11: Example 247 (peptide)
chain: YXQGTFTSDFSXXLDKKAQXAFIEYLLEXGHSSGAPPPSGE
modifications: non-natural residues; lipidated Lys AEEA-γGlu-C18 diacid; C-term amide; synthetic construct; SITE 2: note = 2-Aminoisobutyric Acid; SITE 12: note = L-ornithine; SITE 13: note = alpha-methyl-leucine; SITE 17: note = Lysine is chemically modified through conjugation of the epsilon-amino group of the Lysine side chain with (2-[2-(2-Amino-ethoxy)-ethoxy]-acetyl)-(gamma-Glu)
Binder B11 has a cAMP Rel EC50 (in the presence of 1% HSA) (hGLP-1R) of 291 nM, a cAMP Rel EC50 (in the presence of 1% HSA) [1] of 12.9 nM and a cAMP Rel EC50 (in the presence of 1% HSA) [2] of 443 nM.

B12: Example 1132 (peptide)
chain: YXQGTFTSDXXQXLDXKAQXQFIQXLIAXGPSSGAPPPSGGGE
modifications: not fully specified; Lys acylated γGlu-C18 diacid; non-natural residues; C-amide; synthetic construct; SITE 2: note = 2-Aminoisobutyric Acid; SITE 10: note = 3-(4-Pyridyl)-L-alanine; SITE 11: note = alpha-methyl-L-serine; SITE 13: note = alpha-methyl-leucine; SITE 16: note = L-ornithine; SITE 17: note = Lysine is chemically modified through conjugation of the epsilon-amino group
B12 gave a Relative cAMP EC50 (hGLP-1R) of 0.681 nM, a Relative cAMP EC50 [1] of 0.0335 nM and a Relative cAMP EC50 [2] of 2.11 nM.
